The term Kd denotes the constant that tells how readily two partners part at equilibrium.

Here are results for 17 molecules from publication PMC5216119, “An allosteric conduit facilitates dynamic multisite substrate recognition by the SCF^Cdc4 ubiquitin ligase” (Nature Communications, 2017).

Where a chain is given by its changes, count along the chain named. Where two headings read alike, the source gives them in different places. Square brackets hold non-standard residues; d marks the D form. Ends that are not written are not given here. Peptide text beside a SMILES is read from it. pT = C[C@@H](OP(=O)(O)O)[C@H](N)C(=O)O; pS = N[C@@H](COP(=O)(O)O)C(=O)O

The target of one assay is Skp1-Cdc4 complex (Saccharomyces cerevisiae, UniProt P07834+P52286). In words: Fluorescence polarization binding of fluorescein-labelled Ash1 peptides to Skp1-Cdc4. The arrangement: species or system yeast. Conditions: 10 nM fluorescein-labelled peptide, increasing recombinant Skp1-Cdc4 complex; 10 mM HEPES pH 7.5, 40 mM NaCl, 0.1 mg ml^−1 BSA, 1 mM DTT; ex 485 / em 535 nm; read-out: Kd (μM) from fluorescence polarization. The text has this:
Figure 6 NMR titration of IM-labelled Cdc4^WD40 with Ash1 peptides. (a) Combined ^1H and ^13C chemical shifts of Cdc4^WD40 on binding of Ash1 peptides, with pT286 peptide in red, pT290 peptide in green, pS294 peptide in yellow, and the peptide phosphorylated on all three CPDs in blue. Assigned Ile and Met residues are labelled with residue number. Chemical shifts for the two bound states in titration with pT286 and triply phosphorylated peptides are reported on the same bars with stripes or without stripes. […] (f) Fluorescence polarization of the fluorescein-labelled Ash1 peptides (circle, pT286/pT290/pS294, square, pT286/pT290, triangle, pT290/pS294, inverted triangle doubly phosphorylated CycE peptide) in the presence of increasing concentrations of the recombinant Skp1-Cdc4 complex (mP, millipolarization unit). (g) Fluorescence polarization of the fluorescein-labelled Ash1 peptides (circle, pT286/pT290/pS294, square, pT286/pT290, triangle, pT290/pS294, inverted triangle, doubly phosphorylated CycE peptide) in the presence of increasing concentrations of the SCF-I2 inhibitor.
Fluorescence polarization assays containing 0.21 μM Skp1-Cdc4 complex and 10 nM fluorescently labelled cyclin E-derived or Ash1-derived phosphopeptides in 10 mM HEPES (pH 7.5), 40 mM NaCl, 0.1 mg ml^−1 BSA and 1 mM DTT in a final volume of 23.5 μl per well were performed on an Analyst HT plate reader (Molecular Devices Corp., Sunnyvale CA). Samples were excited at 485 nm and emission was read at 535 nm (ref. [26]).

The target in assay [1] is Cdc4 (Saccharomyces cerevisiae) (UniProt P07834). The following applies: cited from earlier work.
Sequence of Cdc4 (Saccharomyces cerevisiae) (P07834 whole entry): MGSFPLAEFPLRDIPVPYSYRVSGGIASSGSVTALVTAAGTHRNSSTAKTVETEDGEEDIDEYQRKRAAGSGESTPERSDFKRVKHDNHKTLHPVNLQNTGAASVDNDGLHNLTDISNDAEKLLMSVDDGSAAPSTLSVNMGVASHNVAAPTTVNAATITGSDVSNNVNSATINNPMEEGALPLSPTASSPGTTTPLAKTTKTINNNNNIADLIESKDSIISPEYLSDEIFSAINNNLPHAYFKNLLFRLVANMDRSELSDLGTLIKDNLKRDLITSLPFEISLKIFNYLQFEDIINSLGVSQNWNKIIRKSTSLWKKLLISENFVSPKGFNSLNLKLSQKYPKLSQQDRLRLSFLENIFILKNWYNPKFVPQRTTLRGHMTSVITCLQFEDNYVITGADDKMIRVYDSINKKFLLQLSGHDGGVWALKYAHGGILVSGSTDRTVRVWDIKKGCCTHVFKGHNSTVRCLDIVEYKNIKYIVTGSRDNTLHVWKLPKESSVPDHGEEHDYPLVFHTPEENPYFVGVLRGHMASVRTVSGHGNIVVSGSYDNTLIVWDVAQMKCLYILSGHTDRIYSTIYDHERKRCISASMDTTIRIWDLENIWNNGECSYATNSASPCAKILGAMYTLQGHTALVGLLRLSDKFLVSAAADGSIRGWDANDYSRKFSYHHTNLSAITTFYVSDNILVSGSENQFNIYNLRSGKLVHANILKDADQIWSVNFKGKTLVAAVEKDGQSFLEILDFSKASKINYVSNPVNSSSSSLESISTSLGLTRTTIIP
Assay [2] has the same target. The following applies: cited from earlier work. This is another data set of the same source.
Assay [3] shares this target. The following applies: cited from earlier work. This is another data set of the same source.
The target is the same in assay [4]. Conditions: cited from earlier work. This is another data set of the same source.
Assay [5] shares this target. The following applies: cited from earlier work. The source holds these as a separate data set.
Assay [6] has the same target. Conditions: cited from earlier work. The source holds these as a separate data set.
Assay [7] shares this target. Conditions: cited from earlier work. The source holds these as a separate data set.
Assay [8] has the same target. Conditions: cited from earlier work. The source holds these as a separate data set.
The target of assay [9] is Cdc4-Skp1 (Saccharomyces cerevisiae) (UniProt P07834). In words: intrinsic Trp fluorescence. The following applies: cited from earlier work.
Sequence of Cdc4-Skp1 (Saccharomyces cerevisiae) (P07834 whole entry, chain 1 of 2): as the sequence (P07834 whole entry) above
Sequence of Cdc4-Skp1 (Saccharomyces cerevisiae) (P52286 2-194, chain 2 of 2, further chain): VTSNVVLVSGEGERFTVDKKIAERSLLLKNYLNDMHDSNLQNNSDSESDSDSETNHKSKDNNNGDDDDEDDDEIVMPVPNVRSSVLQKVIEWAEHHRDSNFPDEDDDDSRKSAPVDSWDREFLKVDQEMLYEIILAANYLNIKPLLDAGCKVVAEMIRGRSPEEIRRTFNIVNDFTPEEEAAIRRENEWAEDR
Assay [10] has as its target fluorescein-labelled Ash1^18pT286/pT290 peptide (yeast). In words: fluorescence polarisation; 10 nM fluorescein-labelled peptide with increasing concentrations of the recombinant Skp1-Cdc4 complex; 10 mM HEPES pH 7.5, 40 mM NaCl, 0.1 mg/ml BSA, 1 mM DTT. (Polarisation of emitted light reports the rotation of a fluorescent probe.)
Assay [11] deals with fluorescein-labelled Ash1^18pT286/pT290/pS294 peptide (yeast). The description is as above.
Assay [12] deals with fluorescein-labelled Ash1^18pT290/pS294 peptide (yeast). The assay is described as above.
A further assay has as its target T1, R664Q Cdc4^WD40 (yeast, UniProt P07834 367-744, R664Q).
T1 construct: Cdc4, yeast F-box protein, WD40 domain, residues 367-744, with Arg664Gln in the allosteric pocket; also called Arg664Gln Cdc4^WD40; mutant (Arg664Gln) Cdc4^WD40; source: E. coli, purified as the wild type (Ni-NTA, Ulp protease, Ni-NTA, Superdex 200)
T1 sequence (looked up): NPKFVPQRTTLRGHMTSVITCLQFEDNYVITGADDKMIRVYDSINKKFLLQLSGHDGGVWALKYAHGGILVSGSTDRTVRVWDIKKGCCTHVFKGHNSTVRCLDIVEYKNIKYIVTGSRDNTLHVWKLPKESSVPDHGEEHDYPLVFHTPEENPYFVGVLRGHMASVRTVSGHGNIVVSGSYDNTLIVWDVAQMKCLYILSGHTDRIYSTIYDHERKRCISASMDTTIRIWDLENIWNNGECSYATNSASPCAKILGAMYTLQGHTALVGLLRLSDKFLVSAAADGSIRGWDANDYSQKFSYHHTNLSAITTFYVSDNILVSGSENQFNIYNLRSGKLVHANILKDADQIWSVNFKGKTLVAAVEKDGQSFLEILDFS
In words: other fluorescence titration; intrinsic Trp fluorescence (excitation 298 nm, emission 366 nm); 0.5 μM Cdc4, ligand titrated; 50 mM Tris, 150 mM NaCl, 5 mM DTT, pH 7.5, 20 °C; 1:1 stoichiometry assumed. The following applies: both partners purified.

Assay [13] deals with T2, Cdc4^WD40 (isolated WD40 domain of the yeast F-box protein Cdc4, residues 367-744), wild type (yeast, UniProt P07834 367-744).
T2 construct: Cdc4, yeast F-box protein, WD40 domain, residues 367-744; For the NMR experiments the protein was U-[15N,2H], Ile-delta1-[13CH3], Met-epsilon-[13CH3] labelled (IM-labelled); also called wt Cdc4^WD40; Cdc4 WD40 domain; source: E. coli BL21(DE3) codonPlus, purified (Ni-NTA, Ulp protease, Ni-NTA, Superdex 200)
T2 sequence (looked up): T1 sequence (looked up) with Q298R
The description is as above. The following applies: both partners purified.

Sequence of Skp1-Cdc4 complex (P07834 whole entry): as the sequence (P07834 whole entry) above
Sequence of Skp1-Cdc4 complex (P52286 whole entry partner): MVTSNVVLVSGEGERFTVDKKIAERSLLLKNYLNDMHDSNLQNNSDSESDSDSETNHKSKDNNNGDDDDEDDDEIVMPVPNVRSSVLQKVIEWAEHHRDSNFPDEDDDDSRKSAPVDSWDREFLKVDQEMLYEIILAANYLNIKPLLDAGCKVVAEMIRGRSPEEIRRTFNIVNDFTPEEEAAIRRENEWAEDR
Sequence of Ash1 pT290 peptide (P34233 whole entry): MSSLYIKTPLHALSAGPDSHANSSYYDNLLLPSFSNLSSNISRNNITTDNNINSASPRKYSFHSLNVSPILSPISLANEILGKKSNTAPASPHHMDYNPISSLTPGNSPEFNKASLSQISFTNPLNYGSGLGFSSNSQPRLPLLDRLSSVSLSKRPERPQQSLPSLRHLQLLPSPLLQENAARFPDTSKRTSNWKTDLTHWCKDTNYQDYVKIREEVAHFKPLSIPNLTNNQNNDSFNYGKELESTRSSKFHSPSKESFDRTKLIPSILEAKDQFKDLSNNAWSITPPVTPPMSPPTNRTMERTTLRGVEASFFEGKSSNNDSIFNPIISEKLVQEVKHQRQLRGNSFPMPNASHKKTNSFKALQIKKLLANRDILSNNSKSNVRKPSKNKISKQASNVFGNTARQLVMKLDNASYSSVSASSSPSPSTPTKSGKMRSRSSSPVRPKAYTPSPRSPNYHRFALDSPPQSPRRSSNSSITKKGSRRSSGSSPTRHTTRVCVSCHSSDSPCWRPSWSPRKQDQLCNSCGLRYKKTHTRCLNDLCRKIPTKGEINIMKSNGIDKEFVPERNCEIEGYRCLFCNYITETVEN
Sequence of Ash1 pT286 peptide (P34233 whole entry): as above
Sequence of Ash1 pS294 peptide (P34233 whole entry): as above
Sequence of pSic1 1-90 (P38634 1-90): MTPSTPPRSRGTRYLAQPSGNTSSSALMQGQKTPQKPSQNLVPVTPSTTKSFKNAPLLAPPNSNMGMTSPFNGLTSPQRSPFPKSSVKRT
Sequence of Sic1 (P38634 whole entry): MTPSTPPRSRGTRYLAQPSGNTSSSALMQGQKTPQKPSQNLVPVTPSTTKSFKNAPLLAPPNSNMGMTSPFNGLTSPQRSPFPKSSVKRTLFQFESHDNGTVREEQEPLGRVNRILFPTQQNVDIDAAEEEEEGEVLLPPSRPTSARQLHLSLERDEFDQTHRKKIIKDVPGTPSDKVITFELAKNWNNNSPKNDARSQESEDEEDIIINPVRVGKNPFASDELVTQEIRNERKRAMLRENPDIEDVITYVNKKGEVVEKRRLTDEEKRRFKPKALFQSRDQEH
Sequence of pSic1 (P38634 whole entry): as above

Take `CC[C@H](C)[C@H](NC(=O)[C@H](CO)NC(=O)[C@H](Cc1c[nH]c2ccccc12)NC(=O)[C@H](C)N)C(=O)N[C@H](C(=O)N1CCC[C@H]1C(=O)N1CCC[C@H]1C(=O)N[C@H](C(=O)N[C@H](C(=O)N1CCC[C@H]1C(=O)N1CCC[C@H]1C(=O)N[C@@H](CCSC)C(=O)N[C@@H](COP(=O)(O)O)C(=O)N1CCC[C@H]1C(=O)N1CCC[C@H]1C(=O)N[C@H](C(=O)N[C@@H](CC(N)=O)C(=O)N[C@@H](CCCNC(=N)N)C(=O)O)[C@@H](C)O)[C@@H](C)OP(=O)(O)O)C(C)C)[C@@H](C)O` [AWSITPPVpTPPMpSPPTNR] (H-AWSITPPV[pT]PPM[pS]PPTNR-OH): on Skp1-Cdc4 complex, the Kd was 0.082 µM.
On the same count and under the same terms, for `CC[C@H](C)[C@H](NC(=O)[C@H](CO)NC(=O)[C@H](Cc1c[nH]c2ccccc12)NC(=O)[C@H](C)N)C(=O)N[C@H](C(=O)N1CCC[C@H]1C(=O)N1CCC[C@H]1C(=O)N[C@H](C(=O)N[C@H](C(=O)N1CCC[C@H]1C(=O)N1CCC[C@H]1C(=O)N[C@@H](CCSC)C(=O)N[C@@H](CO)C(=O)N1CCC[C@H]1C(=O)N1CCC[C@H]1C(=O)N[C@H](C(=O)N[C@@H](CC(N)=O)C(=O)N[C@@H](CCCNC(=N)N)C(=O)O)[C@@H](C)O)[C@@H](C)OP(=O)(O)O)C(C)C)[C@@H](C)OP(=O)(O)O` [AWSIpTPPVpTPPMSPPTNR] (H-AWSI[pT]PPV[pT]PPMSPPTNR-OH) the value was 0.069 µM.
On the same count and under the same terms, for `CC[C@H](C)[C@H](NC(=O)[C@H](CO)NC(=O)[C@H](Cc1c[nH]c2ccccc12)NC(=O)[C@H](C)N)C(=O)N[C@H](C(=O)N1CCC[C@H]1C(=O)N1CCC[C@H]1C(=O)N[C@H](C(=O)N[C@H](C(=O)N1CCC[C@H]1C(=O)N1CCC[C@H]1C(=O)N[C@@H](CCSC)C(=O)N[C@@H](COP(=O)(O)O)C(=O)N1CCC[C@H]1C(=O)N1CCC[C@H]1C(=O)N[C@H](C(=O)N[C@@H](CC(N)=O)C(=O)N[C@@H](CCCNC(=N)N)C(=O)O)[C@@H](C)O)[C@@H](C)OP(=O)(O)O)C(C)C)[C@@H](C)OP(=O)(O)O` [AWSIpTPPVpTPPMpSPPTNR] (H-AWSI[pT]PPV[pT]PPM[pS]PPTNR-OH) the value was 0.046 µM.
As for “Ash1 pS294 peptide (from UniProt P34233)”, the dissociation constant (Kd) in [1] is 6500 nM.
With “Ash1 pSer294 phosphopeptide 283-299 (from UniProt P34233)”, the Kd in assay [2] was 6500 nM.
Regarding “Ash1 pT286 peptide (from UniProt P34233)”, the Kd in [3] was 900 nM.
Consider “Ash1 pT290 peptide (from UniProt P34233)”, for which the Kd in assay [4] is 4100 nM.
For “Ash1 pThr286 phosphopeptide 283-299 (from UniProt P34233)”, in assay [5], the Kd was 900 nM.
With “Ash1 pThr290 phosphopeptide 283-299 (from UniProt P34233)”, the Kd in assay [6] is 4100 nM.
Consider “Ash1 triphosphorylated peptide 283-299 (from UniProt P34233)”, for which the Kd in assay [7] is 70 nM.
With Sic1 (from UniProt P38634), the Kd in assay [8] was 1000 nM.
For the molecule pSic1 1-90 (from UniProt P38634), the Kd in assay [9] was 600 nM.
As for pSic1 (from UniProt P38634), in assay [9], the Kd is 600 nM.
Regarding “recombinant Skp1-Cdc4 complex (from UniProt P07834 1-779; P52286 1-194)”, the Kd in assay [10] was 69 nM; in assay [11], 46 nM; in assay [12], 82 nM.
On to GMT[pS]PFNGLTSPQRSPFPKS [Sic1^20pS69 phosphopeptide], for which the results for the Ka (with R664Q Cdc4^WD40; in assay [13]) were 51400 M⁻¹ and 97600 M⁻¹, respectively. Also, the Kd with R664Q Cdc4^WD40 was found to be 19500 nM; in assay [13], 10300 nM.
In the assay with R664Q Cdc4^WD40, GMTSPFNGLTSPQR[pS]PFPKS [Sic1^20pS80 phosphopeptide] gave a Ka of 104000 M⁻¹ and a Kd of 9580 nM. Further, in [13], the Ka worked out at 110000 M⁻¹ and the dissociation constant (Kd) came out at 9130 nM.
For the molecule GMT[pS]PFNGLTSPQR[pS]PFPKS [Sic1^20pS69/pS80 phosphopeptide], in the assay with R664Q Cdc4^WD40, the Ka turned out to be 267000 M⁻¹ and binding was characterised by a dissociation constant (Kd) of 3740 nM. In assay [13], this molecule came in with a Ka of 142000 M⁻¹ and a Kd of 7060 nM.
